System: DM1 human myoblast
Experiment: Myogenic gene expression fold change in DM1 human myoblast
Assay type: cell-based
Details: 48 h; BMP7 50 ng/mL, Butyrate 100 nM, IGF2 200 ng/mL
Method: Myoblasts were cultured 48 h in the presence of factors (BMP7 50 ng/mL, Butyrate 100 nM, IGF2 200 ng/mL).
Myoblasts were cultured 96 h in the presence of factors (IGF2 200 ng/ml). […] Myoblasts were cultured 48 h in the presence of factors (IGF2 200 ng/mL).
IGF2 was tested individually for its ability to promote proliferation and/or fusion of human muscle progenitor cells from an individual with myotonic dystrophy type 1 (hMD)—a muscular dystrophy caused by mutations in the DMPK1 gene. The effect of IGF2 on myogenic activity was assayed in biological triplicate across a range of concentrations centered around expected physiological levels by adding each factor to hMD myoblasts for 72 hours with daily media changes (DMEM +2% horse serum) and a second pulse of factors at the first media change. After 72 or 96 hours, cells were pulsed for 2-5 hours with EdU (30 uM), ethanol fixed, stained with Hoescht 3342, immunostained for proliferation—as measured by the percent of cells staining positive for EdU (% EdU)-, and immunostained for differentiation—as measured by the increase in cellular area staining positive for embryonic myosin heavy chain (% eMyHC) relative to the negative controls, which received media and vehicle only. Wells were imaged on a Keyence BZ-100 at 4×, the images quantified in Cell Profiler, and the statistics were computed in R. Additionally, RNA was extracted from myoblast and select transcript abundances quantified by qPCR.

B1: BMP7: factor BMP7, 50 ng/mL, tested on DM1 human myoblast (protein, UniProt P18075 293-431, looked up)
Bone morphogenetic protein 7: STGSKQRSQNRSKTPKNQEALRMANVAENSSSDQRQACKKHELYVSFRDLGWQDWIIAPEGYAAYYCEGECAFPLNSYMNATNHAIVQTLVHFINPETVPKPCCAPTQLNAISVLYFDDSSNVILKKYRNMVVRACGCH
MYF5 expression fold change compared to FM (vehicle): 0.709 | MYOD1 expression fold change compared to FM (vehicle): 0.709 | MYOG expression fold change compared to FM (vehicle): 0.361
